Source: patent US10829756B2, “Discovery of enzymes from the alpha-keto acid decarboxylase family” (Regents of the University of California, priority 2015, dated 2020)
Values joined by “and” are separate entries in the source; they are usually repeats but may differ in a detail not shown here. Identical values can stand only once.

B1: GEO175: native enzyme from Streptomyces sp. C, predicted protein with no known function, 2-ketoacid decarboxylase, SEQ ID NO:2 (protein)
chain: MRTVRESALDVLRARGMTTVFGNPGSTELPMLKQFPDDFRYVLGLQEAVVVGMADGFALASGTTGLVNLHTGPGTGNAMGAILNARANRTPMVVTAGQQVRAMLTMEALLTNPQSTLLPQPAVKWAYEPPRAADVAPALARAVQVAETPPQGPVFVSLPMDDFDVVLGEDEDRAAQRAAARTVTHAAAPSAEVVRRLAARLSGARSAVLVAGNDVDASGAWDAVVELAERTGLPVWSAPTEGRVAFPKSHPQYRGMLPPAIAPLSRCLEGHDLVLVIGAPVFCYYPYVPGAHLPENTELVHLTRDADEAARAPVGDAVVADLALTVRALLAELPAREAAAPAARTARAESTAEVDGVLTPLAAMTAIAQGAPANTLWVNESPSNLGQFHDATRIDTPGSFLFTAGGGLGFGLAAAVGAQLGAPDRPVVCVIGDGSTHYAVQALWTAAAYKVPVTFVVLSNQRYAILQWFAQVEGAQGAPGLDIPGLDIAAVATGYGVRAHRATGFGELSKLVRESALQQDGPVLIDVPVTTELPTL
modifications: Streptomyces sp. C
B2: Native KIVD: ketoisovalerate decarboxylase used in the current synthetic recursive+1 pathway, SEQ ID NO:1 (protein, listed as Lactococcus lactis)
chain: MYTVGDYLLDRLHELGIEEIFGVPGDYNLQFLDQIISRKDMKWVGNANELNASYMADGYARTKKAAAFLTTFGVGELSAVNGLAGSYAENLPVVEIVGSPTSKVQNEGKFVHHTLADGDFKHFMKMHEPVTAARTLLTAENATVEIDRVLSALLKERKPVYINLPVDVAAAKAEKPSLPLKKENSTSNTSDQEILNKIQESLKNAKKPIVITGHEIISFGLEKTVSQFISKTKLPITTLNFGKSSVDEALPSFLGIYNGKLSEPNLKEFVESADFILMLGVKLTDSSTGAFTHHLNENKMISLNIDEGKIFNESIQNFDFESLISSLLDLSEIEYKGKYIDKKQEDFVPSNALLSQDRLWQAVENLTQSNETIVAEQGTSFFGASSIFLKPKSHFIGQPLWGSIGYTFPAALGSQIADKESRHLLFIGDGSLQLTVQELGLAIREKINPICFIINNDGYTVEREIHGPNQSYNDIPMWNYSKLPESFGATEERVVSKIVRTENEFVSVMKEAQADPNRMYWIELILAKEDAPKVLKKMGKLFAEQNKS

Key:
[1] = system: synthetic recursive+1 pathway; test: In vivo alcohol production of the synthetic recursive+1 pathway (fermentation, GC-FID); type: cell-based, E. coli; settings: for 1-Butanol production / 1-Ethanol production / 1-Heptanol production / 1-Hexanol production / 1-Octanol production / 1-Pentanol production / 1-Propanol production: forty hours, microaerobic, defined media
Experimental: The measured specificity and activity for each enzyme was used to select two candidates for further characterization of their ability to modulate alcohol production in vivo. The two enzymes with the highest activity and specificity (FIG. 4), KIVD_VLV and GEO 175, were tested for their ability to reprogram the synthetic recursive+1 pathway to produce long-chain alcohol products in vivo. The alcohol-producing biochemical pathway was adapted from a previous study used to synthesize alcohols of various lengths.^3,4 Starting from glucose, the aforementioned+1 pathway, involving LeuABCD, recursively elongates 2-ketoacids, starting with 2-ketobutyrate, into longer chained 2-ketoacids. These 2-ketoacids are then converted to aldehydes by ketoacid decarboxylases (native KIVD, KIVD_VLV, and GEO 175) and subsequently to alcohols by an alcohol dehydrogenase. Carbon flux through this alcohol synthesizing biochemical pathway is enhanced by overexpressing thrABC, ilvA, LeuABCD, and ADH6 on inducible plasmids transformed into E. coli.^3 The effects of overexpression were furthermore supported and maintained by knocking out the threonine exporter enzyme RhtA and the primary DNA recombination degradation enzyme RecA. The enzyme AdhE was also knocked out, which helps raise long chain alcohol production by eliminating a competing pathway where acetyl-CoA is directly converted to ethanol.^19
Genes were removed from the ATCC 98082 ΔrhtA strain genome using P1 transduction from the Keio collection as previously.^32 The aldehyde-alcohol dehydrogenase gene (adhE) was knocked out to eliminate ethanol production from acetyl-coA. In all strains, recA was knocked out to prevent recombination between the genome and plasmids, thereby stabilizing the transformants. Primers used to target recA for knockout were designed based on the Keio collection (Genobase, ecoli.aist-nara.ac.jp) and ordered from Integrated DNA Technologies.
For n-alcohol production, strains of ST128 were transformed with pZS_thrO, pZAlac_ilvABSleuA, and pZE_LeuA*BCDK*A6 containing various kivd mutations. Fermentation conditions were adapted from those in previous works,^3,4 with the following changes: 20 mL of medium was used, with 100 μg/mL ampicillin, […] kanamycin, and 100 μg/mL spectinomycin added. Cells were grown to an optical density at 600 nm of ˜0.6, followed by induction with 0.1 mM isopropyl-b-D-thiogalactoside (IPTG). After fermentation, cells were centrifuged for 15 minutes at 4000×g and 4° C. The supernatant was split into two fractions for analysis, 5 mL for short chain alcohols (ethanol, 1-propanol, and 1-butanol), and 15 mL for long chain alcohols (1-pentanol, 1-hexanol, 1-heptanol, and 1-octanol). Long chain alcohols were extracted from the 15 mL fraction by 3 mL n-hexane prior to analysis. GC-FID analysis was performed as previously described.^4

[2] = In vitro steady-state kinetics of purified 2-ketoacid decarboxylases (ADH/NADH-coupled), C8 substrate; type: biochemical; settings: kcat/KM on C8
Experimental: For the native KIVD and KIVD_VLV mutant, 2 ml overnight cultures of XL1B cells were transformed with pQE9 containing N-terminal his-tagged KIVD enzymes and grown in Terrific Broth (BP biomedical, Cat#3046-042) with 50 μg/mL of carbenicillin. (Fisher scientific, Cat# BP2648-5) For the GEOs, 2 ml overnight cultures of BLR cells were transformed with pet29b+ plasmid containing N-terminal his-tagged GEOs, and grown in Terrific Broth with 50 μg/mL of kanamycin. (Fisher scientific, Cat# BP906-5) These cultures were diluted 1:1000 in 500 mL of Terrific Broth with 1 mM MgSO4, 1% glucose, and 50ug/mL of corresponding antibiotics, then grown at 37° C. for 24 hours. […] Protein concentrations were determined using a Synergy H1 spectrophotometer (Biotek) by measuring absorbance at 280 nm using their calculated extinction coefficients with ExPASy ProtParam Tool.^33 All other buffers and salts were purchased from Fisher Scientific unless otherwise specified.
The kcat and KM values of selective KIVD mutants were measured for the substrates: C3, C5, isoC5, and C8. […] Activity was measured at 0.005 mM to 10 mM substrates. […] Absorbance readings were taken every 1-minute at OD340 at 21° C. for 60 minutes using the Synergy H1. Kinetic parameters (kcat and KM) were determined by fitting initial velocity versus substrate concentration data to the Michaelis-Menten equation.

Molecule	1-Butanol production [1] [mg/L]	1-Ethanol production [1]	1-Heptanol production [1] [mg/L]	1-Hexanol production [1] [mg/L]	1-Octanol production [1]	1-Pentanol production [1] [mg/L]	1-Propanol production [1]	also measured
B1	19	no ethanol or propanol production is observed	274	160	10 mg/L	88	no ethanol or propanol production is observed	drop of overall alcohol production from that obtained with KIVD [1]: ~10 fold; heptanol share of alcohol production [1]: 50%; hexanol share of alcohol production [1]: 29%; major alcohol product [1]: heptanol (C7) and 1-heptanol; pentanol share of alcohol production [1]: 16%; 1-Butanol production ([1]; listed as GEO 175): 19 ± 2 mg/L; 1-Heptanol production ([1]; listed as GEO 175): 274 ± 19 mg/L; 1-Hexanol production ([1]; listed as GEO 175): 160 ± 18 mg/L; 1-Octanol production ([1]; listed as GEO 175): 10 ± 1 mg/L; 1-Pentanol production ([1]; listed as GEO 175): 88 ± 12 mg/L; long chain (≥C5) alcohols produced ([1]; sum of long chain alcohols): 522 mg/L; catalytic efficiency on C8 lower than native KIVD [2]: 2 fold
B2	1964 ± 24	652 ± 32 mg/L	20 ± 3	75 ± 6	not observed	594 ± 20	693 ± 4 mg/L	overall alcohol production [1]: 4.0 g/L; short alcohols (C2-C4) share of total alcohol production [1]: 82%
